The test system of experiment [1] is brainstem neurons, neurons of the locus coeruleus, GABAergic interneurons of the hindbrain. Description: Electrophysiology, whole cell current clamp recording in brain slices. It is filed as cell-based, mouse. How it is done:
Brain slice preparations and electrophysiological recordings were performed according to methods known in the art. Briefly, WT mice were anesthetized with ether and then decapitated. The brains were rapidly removed and immersed in an oxygenated bath solution at […] containing (in mM): sucrose 220, KCl 2.5, CaCl2 1, MgCl2 6, NaH2PO4 1.25, NaHCO3 26, and glucose 10 pH 7.3 with NaOH. Coronal slices (350 μm thick) containing dorsal raphe (DR) were cut on a vibratome and maintained in a holding chamber with artificial cerebrospinal fluid (ACSF) (bubbled with 5% CO2 and 95% O2) containing (in mM): NaCl 124, KCl 3, CaCl2 2, MgCl2 2, NaH2PO4 1.23, NaHCO3 26, glucose 10, pH 7.4 with NaOH, and were transferred to a recording chamber constantly perfused with bath solution (330 C) at 2 ml/min after at least a 1 hr recovery. Whole-cell current clamp was performed to observe action potentials in DR serotoninergic (5-HT) neurons with a Multiclamp 700A amplifier (Axon instrument, CA). Patch pipettes with a tip resistance of 4-6 MS2 were made of borosilicate glass (World Precision Instruments) with a Sutter pipette puller (P-97) and filled with a pipette solution containing (in mM): K-gluconate (or Cs-gluconate) 135, MgCl2 2, HEPES 10, EGTA 1.1, Mg-ATP 2, Na2-phosphocreatine 10, and Na2-GTP 0.3, pH 7.3 with KOH. After a giga-Ohm (GΩ) seal and whole-cell access were achieved, the series resistance (between 20 and 40 MΩ) was partially compensated by the amplifier. […] Electrophysiological data were analyzed with Axograph 4.9 and plotted with Igor Pro software (WaveMetrics, Lake Oswego, Oreg.).
To determine if osteocalcin acts directly on neurons to modulate neurotransmitter synthesis, several types of assays were performed. […] Third, to further confirm that osteocalcin signals in neurons of the hindbrain, calcium flux in MPHN treated with undercarboxylated or carboxylated osteocalcin (FIG. 3F) was measured. […]

In a further experiment the test system is WT mice. In words: Contextual Fear Conditioning after acute hippocampal injection. Type of experiment: in vivo, mouse. Particulars: for freezing behavior compared to controls, 24 hours after the initial shocks: 10 ng injected acutely in both hemispheres, n=4 per group. How it is done:
FIG. 11. CREB activation by osteocalcin is functionally relevant. Contextual fear conditioning in 3.5 month old mice injected acutely with 10 ng recombinant uncarboxylated osteocalcin 24 hours prior to context exposure. 3 shocks of 0.55 mA were delivered to mice 1 min apart.
To determine whether these acute injections and corresponding activation of the CREB pathway are functionally relevant, Contextual Fear Conditioning (CFC), a hippocampus dependent task that assesses long term memory, was performed. Mice were injected acutely in both hemispheres with either PBS or 10 ng recombinant uncarboxylated osteocalcin.

B1: uncarboxylated osteocalcin: Recombinant osteocalcin bacterially produced, cleaved from the GST subunit; completely undercarboxylated at all three sites (protein, listed as Homo sapiens)
chain: MRALTLLALLALAALCIAGQAGAKPSGAESSKGAAFVSKQEGSEVVKRPRRYLYQWLGAPVPYPDPLEPRREVCELNPDCDELADHIGFQEAYRRFYGPV
modifications: uncarboxylated
notes: Recombinant osteocalcin bacterially produced, cleaved from the GST subunit; completely undercarboxylated at all three sites
Take B1: the “action potential frequency of the GABAergic interneurons of the hindbrain” value in experiment [1] is “inhibits”. The “action potential frequency in neurons of the locus coeruleus” value in experiment [1] (whole cell current clamp) was “decreases”. In addition, the “action potential frequency of brainstem neurons” value in experiment [1] (whole cell current clamp) was “activates”. Besides, the “% freezing on Day 1” value in the experiment on WT mice (10 ng injected 24 hours prior to context exposure, 3.5 month old mice) was “the same for both groups”. Moreover, the “freezing behavior compared to controls, 24 hours after the initial shocks” value in the experiment with WT mice was “increased freezing behavior”; in the experiment with WT mice (listed as recombinant uncarboxylated osteocalcin), “increased freezing along with hyperexcitability”.

These data come from patent US10052364B2, “Osteocalcin as a treatment for cognitive disorders” (THE TRUSTEES OF COLUMBIA UNIVERSITY IN THE CITY OF NEW YORK, priority 2013, dated 2018).
